{"source": "paper PMC4180279", "key": {"[1]": {"target": "GST-P/Q, residues 1898-2035 of the rat P/Q channel α1 subunit (Cav2.1) C-terminal tail (rat)", "test": "pull-down; 5 μM GST fusion protein immobilised on glutathione-agarose; 5 μM GST-free NCS-1 or CaM added; 150 mM KCl, 20 mM HEPES pH 7.4, 10% glycerol, 5 mM NTA, 5 mM EGTA, 1 mM DTT, 0.1% NP-40, with 1 μM free Ca2+; 1 h, 4 °C; Western blot, densitometry normalised to NCS-1 on GST-PQ with Ca2+ = 100%"}, "[2]": {"target": "Cav2.1 P/Q-type calcium channel IQ domain (Homo sapiens) (UniProt O00555)", "sequence (O00555 1963-1983)": "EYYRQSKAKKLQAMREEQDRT", "test": "ITC", "conditions": "cited from earlier work"}}}
{"substance": "Neuronal calcium sensor-1 (NCS-1), GST-free recombinant protein from the GST-NCS-1 plasmid (from UniProt P62166 1-190) (natural protein)", "values": [{"measurement": "average NCS-1 bound (%)", "setting": "[1]", "result": 100, "unit": "%"}]}
{"substance": "calmodulin C lobe C lobe (from UniProt P0DP23)", "values": [{"measurement": "Kd", "setting": "[2]", "result": 4.32, "unit": "nM"}]}
